Experimental data published in the supplement of paper PMC6757056.
± gives the standard deviation of the averaged measurements.

B1: library; a variant is named by its letters at N, in order (parent)
chain: GCUGUCACCGGUGCUUGGUACGUUAUAUUCAGCCGGUCUGAUGAGUCUNNNNNNAGACGAAACAGC

Tests used:
(6R,S)-folinic acid [1] = variants of: B1; assay: normalized RNA/DNA level without ligand (relative to sTRSVctl = 100) (log10 (% of sTRSVctl)); HEK293T overexpressing SLC46A1; higher = less ribozyme self-cleavage, higher mRNA level; conditions: without (6R,S)-folinic acid; ligand present: no
How it was run: (§1)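 Ribozyme switch library plasmids linked to reporters were introduced into HEK293T cells at 4 µg per 6-well well, with ligand, if any, added 1 h before. Total RNA was extracted with EDTA 72 h later, reverse-transcribed, amplified, barcoded and sequenced. RNA level was computed from RNA over DNA reads relative to a spiked-in non-cleaving sequence or the top sequences, then scaled and log-transformed. The top set was 25 sequences, values were ×100 and log10, and the cutoff was ≥100 DNA reads.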

(6R,S)-folinic acid [2] = variants of: B1; assay: normalized RNA/DNA level with ligand (relative to sTRSVctl = 100) (log10 (% of sTRSVctl)); HEK293T overexpressing SLC46A1; ligand concentration (+) RNA-Seq: 6 mM; higher = less ribozyme self-cleavage, higher mRNA level; conditions: with (6R,S)-folinic acid; ligand present: yes
How it was run: as §1

| Variant | normalized RNA/DNA level without ligand (log10) ((6R,S)-folinic acid [1]) | normalized RNA/DNA level with ligand (log10) ((6R,S)-folinic acid [2]) |
| --- | --- | --- |
| GCUGUCACCGGUGCUUGGUACGUUAUAUUCAGCCGGUCUGAUGAGUCUCAUGGAAGACGAAACAGC [CAUGGA] | 2.0099 ± 0.0018 | 2.04 ± 0.025 |
| GCUGUCACCGGUGCUUGGUACGUUAUAUUCAGCCGGUCUGAUGAGUCUGAUGGAAGACGAAACAGC [GAUGGA] | 1.987 ± 0.0081 | 2.02 ± 0.043 |
| GCUGUCACCGGUGCUUGGUACGUUAUAUUCAGCCGGUCUGAUGAGUCUAAUGGAAGACGAAACAGC [AAUGGA] | 1.925 ± 0.0083 | 1.99 ± 0.033 |
| GCUGUCACCGGUGCUUGGUACGUUAUAUUCAGCCGGUCUGAUGAGUCUCAUGGCAGACGAAACAGC [CAUGGC] | 2.04 ± 0.022 | 2.03 ± 0.03 |
| GCUGUCACCGGUGCUUGGUACGUUAUAUUCAGCCGGUCUGAUGAGUCUAAUGGCAGACGAAACAGC [AAUGGC] | 1.997 ± 0.012 | 2.029 ± 0.019 |
| GCUGUCACCGGUGCUUGGUACGUUAUAUUCAGCCGGUCUGAUGAGUCUCAUGGGAGACGAAACAGC [CAUGGG] | 1.91 ± 0.015 | 2.008 ± 0.013 |
| GCUGUCACCGGUGCUUGGUACGUUAUAUUCAGCCGGUCUGAUGAGUCUGAUGGGAGACGAAACAGC [GAUGGG] | 1.941 ± 0.0096 | 2.043 ± 0.019 |
| GCUGUCACCGGUGCUUGGUACGUUAUAUUCAGCCGGUCUGAUGAGUCUCAUGGUAGACGAAACAGC [CAUGGU] | 1.903 ± 0.019 | 1.95 ± 0.037 |
| GCUGUCACCGGUGCUUGGUACGUUAUAUUCAGCCGGUCUGAUGAGUCUUAUGGUAGACGAAACAGC [UAUGGU] | 1.8765 ± 0.0006 | 1.98 ± 0.026 |
| GCUGUCACCGGUGCUUGGUACGUUAUAUUCAGCCGGUCUGAUGAGUCUCAUGUAAGACGAAACAGC [CAUGUA] | 1.947 ± 0.0027 | 1.99 ± 0.047 |
| GCUGUCACCGGUGCUUGGUACGUUAUAUUCAGCCGGUCUGAUGAGUCUAAUGUAAGACGAAACAGC [AAUGUA] | 1.9489 ± 1.8e-05 | 2.01 ± 0.04 |
| GCUGUCACCGGUGCUUGGUACGUUAUAUUCAGCCGGUCUGAUGAGUCUUAUGUAAGACGAAACAGC [UAUGUA] | 1.8903 ± 0.0016 | 1.99 ± 0.057 |
| GCUGUCACCGGUGCUUGGUACGUUAUAUUCAGCCGGUCUGAUGAGUCUCAUGUCAGACGAAACAGC [CAUGUC] | 2.03 ± 0.027 | 1.997 ± 0.0052 |
| GCUGUCACCGGUGCUUGGUACGUUAUAUUCAGCCGGUCUGAUGAGUCUUAUGUCAGACGAAACAGC [UAUGUC] | 2.05 ± 0.033 | 2.01 ± 0.049 |
| GCUGUCACCGGUGCUUGGUACGUUAUAUUCAGCCGGUCUGAUGAGUCUAAUGUGAGACGAAACAGC [AAUGUG] | 1.81 ± 0.0053 | 1.999 ± 0.013 |
| GCUGUCACCGGUGCUUGGUACGUUAUAUUCAGCCGGUCUGAUGAGUCUAAUGUUAGACGAAACAGC [AAUGUU] | 1.972 ± 0.0068 | 1.993 ± 0.0074 |
| GCUGUCACCGGUGCUUGGUACGUUAUAUUCAGCCGGUCUGAUGAGUCUUAUGUUAGACGAAACAGC [UAUGUU] | 1.95 ± 0.022 | 2 ± 0.023 |
| GCUGUCACCGGUGCUUGGUACGUUAUAUUCAGCCGGUCUGAUGAGUCUCAUUAAAGACGAAACAGC [CAUUAA] | 1.953 ± 0.0081 | 1.976 ± 0.014 |
| GCUGUCACCGGUGCUUGGUACGUUAUAUUCAGCCGGUCUGAUGAGUCUAAUUAAAGACGAAACAGC [AAUUAA] | 1.95 ± 0.021 | 1.98 ± 0.025 |
| GCUGUCACCGGUGCUUGGUACGUUAUAUUCAGCCGGUCUGAUGAGUCUGAUUACAGACGAAACAGC [GAUUAC] | 1.987 ± 0.014 | 2.017 ± 0.017 |
| GCUGUCACCGGUGCUUGGUACGUUAUAUUCAGCCGGUCUGAUGAGUCUAAUUACAGACGAAACAGC [AAUUAC] | 1.982 ± 0.0057 | 2.01 ± 0.026 |

| Variant | normalized RNA/DNA level without ligand (log10) ((6R,S)-folinic acid [1]) | normalized RNA/DNA level with ligand (log10) ((6R,S)-folinic acid [2]) |
| --- | --- | --- |
| GCUGUCACCGGUGCUUGGUACGUUAUAUUCAGCCGGUCUGAUGAGUCUCAUUAGAGACGAAACAGC [CAUUAG] | 1.94 ± 0.037 | 1.985 ± 0.0055 |
| GCUGUCACCGGUGCUUGGUACGUUAUAUUCAGCCGGUCUGAUGAGUCUAAUUAGAGACGAAACAGC [AAUUAG] | 1.94 ± 0.0025 | 2.01 ± 0.027 |
| GCUGUCACCGGUGCUUGGUACGUUAUAUUCAGCCGGUCUGAUGAGUCUAAUUAUAGACGAAACAGC [AAUUAU] | 1.983 ± 0.013 | 2.03 ± 0.038 |
| GCUGUCACCGGUGCUUGGUACGUUAUAUUCAGCCGGUCUGAUGAGUCUUAUUAUAGACGAAACAGC [UAUUAU] | 1.931 ± 0.012 | 1.985 ± 0.01 |
| GCUGUCACCGGUGCUUGGUACGUUAUAUUCAGCCGGUCUGAUGAGUCUCAUUCAAGACGAAACAGC [CAUUCA] | 1.96 ± 0.02 | 1.9724 ± 0.001 |
| GCUGUCACCGGUGCUUGGUACGUUAUAUUCAGCCGGUCUGAUGAGUCUAAUUCAAGACGAAACAGC [AAUUCA] | 1.9759 ± 0.00044 | 2 ± 0.041 |
| GCUGUCACCGGUGCUUGGUACGUUAUAUUCAGCCGGUCUGAUGAGUCUUAUUCAAGACGAAACAGC [UAUUCA] | 2.019 ± 0.0067 | 2.05 ± 0.037 |
| GCUGUCACCGGUGCUUGGUACGUUAUAUUCAGCCGGUCUGAUGAGUCUCAUUCCAGACGAAACAGC [CAUUCC] | 2.06 ± 0.033 | 2.02 ± 0.06 |
| GCUGUCACCGGUGCUUGGUACGUUAUAUUCAGCCGGUCUGAUGAGUCUGAUUCCAGACGAAACAGC [GAUUCC] | 2.064 ± 0.0098 | 2.043 ± 0.019 |
| GCUGUCACCGGUGCUUGGUACGUUAUAUUCAGCCGGUCUGAUGAGUCUAAUUCCAGACGAAACAGC [AAUUCC] | 2.059 ± 0.018 | 2.036 ± 0.019 |
| GCUGUCACCGGUGCUUGGUACGUUAUAUUCAGCCGGUCUGAUGAGUCUUAUUCCAGACGAAACAGC [UAUUCC] | 1.972 ± 0.0012 | 1.986 ± 0.0039 |
| GCUGUCACCGGUGCUUGGUACGUUAUAUUCAGCCGGUCUGAUGAGUCUCAUUCGAGACGAAACAGC [CAUUCG] | 2.037 ± 0.0077 | 2 ± 0.032 |
| GCUGUCACCGGUGCUUGGUACGUUAUAUUCAGCCGGUCUGAUGAGUCUGAUUCGAGACGAAACAGC [GAUUCG] | 1.978 ± 0.0021 | 2.01 ± 0.042 |
| GCUGUCACCGGUGCUUGGUACGUUAUAUUCAGCCGGUCUGAUGAGUCUAAUUCGAGACGAAACAGC [AAUUCG] | 1.974 ± 0.012 | 2.03 ± 0.038 |
| GCUGUCACCGGUGCUUGGUACGUUAUAUUCAGCCGGUCUGAUGAGUCUUAUUCGAGACGAAACAGC [UAUUCG] | 1.735 ± 0.0046 | 1.94 ± 0.063 |
| GCUGUCACCGGUGCUUGGUACGUUAUAUUCAGCCGGUCUGAUGAGUCUCAUUCUAGACGAAACAGC [CAUUCU] | 2.022 ± 0.0089 | 2.01 ± 0.056 |
| GCUGUCACCGGUGCUUGGUACGUUAUAUUCAGCCGGUCUGAUGAGUCUAAUUCUAGACGAAACAGC [AAUUCU] | 2.0312 ± 0.0016 | 2.03 ± 0.027 |
| GCUGUCACCGGUGCUUGGUACGUUAUAUUCAGCCGGUCUGAUGAGUCUUAUUCUAGACGAAACAGC [UAUUCU] | 1.99 ± 0.039 | 2.04 ± 0.048 |
| GCUGUCACCGGUGCUUGGUACGUUAUAUUCAGCCGGUCUGAUGAGUCUCAUUGAAGACGAAACAGC [CAUUGA] | 2.019 ± 0.0027 | 2.01 ± 0.055 |
| GCUGUCACCGGUGCUUGGUACGUUAUAUUCAGCCGGUCUGAUGAGUCUCAUUGCAGACGAAACAGC [CAUUGC] | 2.021 ± 0.0021 | 1.99 ± 0.019 |
